System: K4 kissing-loop RNA reporter
Experiment: apparent KD of K4 kissing-loop reporter; higher = weaker reporter binding
Conditions: Eterna round: R107
Experimental: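 RNA-MaP round R107: designed RNA switches with theophylline, tryptophan, arginine or FMN aptamers are transcribed on-chip within common flanks. They are titrated with a labelled K4 kissing-loop RNA reporter in RNA-MaP buffer (100 mM Tris pH 7.5, 80 mM KCl, 4 mM MgCl2), without ligand or with the indicated ligand. Median apparent KD per design.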

[1] = input ligand: theophylline 20 uM
[2] = input ligand: tryptophan 2.4 mM
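Note: bound reporter read as fluorescence of individual clusters on recovered sequencing chips by microscopy, with normalized cluster intensities fitted with a binding model.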

Sequence	apparent KD of K4 kissing-loop reporter (input ligand: FMN 200 uM) [µM]	apparent KD of K4 kissing-loop reporter (input ligand: arginine 13.2 mM) [µM]	apparent KD of K4 kissing-loop reporter (input ligand: none) [µM]	apparent KD of K4 kissing-loop reporter [1] [µM]	apparent KD of K4 kissing-loop reporter [2] [µM]
GGCCGCAAGGCGAGCGCUCCCACUCCGGAAGGAGCGCCCGUAAGGGCAGGUAGGUCGCCGGAGUGAUGUUCCGGUGGAGGGCUCG [#2 Exclusion - Arginine A Attempt #17 (Inspired by Omei)]	0.565	0.239	0.547	0.443	0.46
GGCGCAGUGAUGUUGCGGGCCGAGAGUGAUACCAGCCGUAUUUGUGGCCCUUGGCAGCGCAGAACCAGUGAUGUUGGUUACUUGG [Same State Theophylline A GF 22]	0.223	0.513	0.423	0.467	0.421
GGCGCCAGGAAAGGAUAUCUAAGUCUAUUAUCAAGAAUUGCCUCAAGAUCGGAGUGAUGUUCCCAGAGAGAAGGUUCUAUCCGCU [theeternabot_exclusion_KL_FMN_B_38]	0.17	0.193	0.186	0.206	0.164
GGCGGCUGCGCGGAAGCGCAGCCGGCCGAUACCAGCGCGACGGCGCGCCCUUGGCAGCGGCGCCGAGUGAUGUUCGGCCUGCCGU [#2 Same State - Theophylline A Attempt #21 (HarryS)]	0.122	0.0822	0.0953	0.124	0.117
GGCGUCUAAAAGUGCCUAGAGAGAAAGGAUACCAGCACCCGGCGGUGCCCUUGGCAGCCUAGCCCAGUGAUGUUGGGUCCUCUAA [Lasorian]	0.38	0.159	0.312	0.336	0.286
GGCUAGACUUAGCUAGGUACAUAAUACGAUACCAGUCUAGAAAUAGACCCUUGGCAGCGUAGGCAGUGAUGUUGCCACUAGCUGA [Theo B SS t7]	0.104	0.144	0.114	0.144	0.113
GGGAACUCUUACGAUACCAGCCGGAGUGAUGUUCCGCGCUUGGACGUAGUAACCCGCACCGGCCCUUGGCAGCGUGGAUCUUAUA [Esbedi]	0.0899	0.0735	0.0739	0.0827	0.0831
GGGAGAAGAGCGGCCGCCACUCAGAAAGAAGAAGAAUAUAGUGAUGUUAUAUAGGAAAGGAAGAAGAGGACCGGGCUUAAGAGGG [#18 K4 Tryptophan B Same State]	0.144	0.132	0.149	0.177	0.171
GGGAGCAAAGCUCCCGGAUGCUAUUACCAGUAGGAUAUCUGGAAACAGAGAAGGGCUAAGCCAGUGAUGUUGGUUUCGAGCAUCC	0.596	0.575	0.754	0.575	0.514
GGGCAUCAGGCUGAUACCAGUGAUAAAGGAUAAGAGACAGGGAGUGAUGUUCCCUUUACCCACCCUUGGCAGCAGUUUAAGUUUG [Exclusion Theophylline B GF 16]	0.0928	0.0949	0.111	0.0943	0.0871
GGGCAUGAUACGAUAAAAUAGUGGAGAGAUACCAGCGUUUUAGAUCGCCCUUGGCAGCUCUCGAGUGAUGUUCGGGUAGCUCUGA [Onedra]	0.101	0.0985	0.115	0.114	0.104
GGGCGCGGCGCGGCCGCCACUGCGCCUGGGUGCUCGCUGAGUGAUGUUCGUCGGCGGUUGGGUGGUAGGACCGGGUGCUGGCCGG [BDazzled - #13 SS Tryptophan B]	0.654	0.463	0.525	0.522	0.527
GGGUCAGCGCGAAGGAGCGCCCUGACAGGUUGCUGCCGUGGGCAGUGAUGUUGCUCAGUCCGGCAGGUAGGUCGCGUGCUGACCC	0.202	0.151	0.183	0.166	0.169
GGGUCUGCCGGAAGGAGCGCACUAUGGAGUGAUGUUCCAUGACCGCACAGCUUGCGGUCAGUGCAGGUAGGUCGCCGGUAGCGUU [Inesor]	0.163	0.154	0.175	0.177	0.162
GGGUCUGUCGGAAGGAGCGCGCUAUGGAGUGAUGUUCCAUGACCGUACAGCUUACGGUCAGCGCAGGUAGGUCGCCGAUAGCGUU [Geordiar]	0.153	0.116	0.142	0.151	0.12
GGGUUGAGCGGAAGGAGCGGCUGAACCAGUGAUGUUGGUUAAUCCAAGUGAUGUUGGAAAAGCCAGGUAGGUCGCCGCUUUAUCC [Same State Arg B GF 3]	0.979	0.533	1.18	0.965	0.774
GGUAGCAUGGCGGCCGCCACUACCUAGUGAUGUUAGGCUGUGGACAUAGGAGCAAAAUAAAUAUGUAGGACCGGGCCAUGCUACC	0.127	0.101	0.121	0.126	0.123
GGUAGCAUGGCGGCCGCCACUACCUAGUGAUGUUAGGCUGUGGACAUAGGAGCAAGAUAAAUAUGUAGGACCGGGCCAUGCUACC	0.129	0.0888	0.103	0.119	0.111
GGUAGCAUGGCGGCCGCCACUCUAUGCGAGUGAUGUUCGCAGCUCAAAGAGCACCCGGGAACAGAGAGGACCGGGCCAUGCUACC	0.294	0.228	0.261	0.302	0.213
GGUAGCAUGGCGGCCGCCACUGAGGCCCUAUGCGAGUCCUCUACAACCUAGUGAUGUUAGGCGUCCAGGACCGGGCCAUGCUACC	0.0957	0.0441	0.0712	0.0584	0.093
GGUAGCAUGGCGGCCGCCACUUAGACUGGAUCGGAAACGAUCCAGUGAAAACGAGUGAUGUUCGUAAGGACCGGGCCAUGCUACC	0.386	0.301	0.318	0.35	0.173
GGUAGCAUGGCGGCCGCCACUUCAAAUGGAGUGAUGUUCCAAGGCAUCGCGAAAGCGAUGCCAGGAAGGACCGGGCCAUGCUACC	0.831	0.859	0.522	0.566	0.143

Source: the supplement of paper PMC9170038
